± gives the standard deviation of the averaged measurements.
Each sequence was assayed on Saccharomyces cerevisiae (assay: protein stability index of tFT-peptide fusion (C-terminal peptide) (PSI (0-1 scale)); higher = more stable (slower turnover)). Details: genetic background: wild type; temperature: 30 C.
Procedure: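 MPS profiling in S. cerevisiae of the yeast C-terminome library: the last 12 aa of each annotated ORF are fused to the C-terminus of a sfGFP-mCherry timer, after a GGGS linker. Cells are FACS-sorted into 8 mCherry/sfGFP bins and deep-sequenced. PSI runs from 0 (unstable) to 1 (stable); wild type and das1Δ backgrounds, two technical replicates each.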
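Throughout, for protein stability index of tFT-peptide fusion in wild type: PSI derived as read-weighted mean over the 8 sorting bins, only variants exceeding 10 total reads kept, mCherry placed adjacent to the peptide and sfGFP distal.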

TVNYLHRLLETD [ISN1 C-terminal 12 aa] and TVPGDENKITKK [PDR12 C-terminal 12 aa] are within error of each other in protein stability index: 0.721 ± 0.039 for the first, 0.654 ± 0.064 for the second.

TVSDGGSIFECS [RAD28 C-terminal 12 aa] and TYRLLLRLHAQD [FAR7 C-terminal 12 aa] are within error of each other in protein stability index: 0.708 ± 0.06 for the first, 0.641 ± 0.019 for the second.

TYSYTIDHPVLT [NUP100 C-terminal 12 aa] and VAASKASKKSKI [NSA1 C-terminal 12 aa] are within error of each other in protein stability index: 0.659 ± 0.034 for the first, 0.677 ± 0.085 for the second.

Compared with VAFFKAVGATIM [YOR146W C-terminal 12 aa], VAKAEKLAAEAN [ATP2 C-terminal 12 aa] is higher in protein stability index: 0.627 ± 0.054 for the first, 0.705 ± 0.022 for the second.

VDALQIQYNRRP [SCD5 C-terminal 12 aa] and VDESWLPETYKK [IRC22 C-terminal 12 aa] are within error of each other in protein stability index: 0.692 ± 0.033 for the first, 0.711 ± 0.022 for the second.

Compared with VDQLFEKASVLY [RPN6 C-terminal 12 aa], VFISTVLLAIVW [YAL065C C-terminal 12 aa] is lower in protein stability index: 0.721 ± 0.03 for the first, 0.192 ± 0.0067 for the second.

VFPDVLFTFLFS [YEL010W C-terminal 12 aa] and VFPGNYVQLNKN [RVS167 C-terminal 12 aa] are within error of each other in protein stability index: 0.713 ± 0.027 for the first, 0.679 ± 0.027 for the second.

VGFAVMALMDEH [YKE4 C-terminal 12 aa] and VHDDSRCYTHFY [BNI4 C-terminal 12 aa] are within error of each other in protein stability index: 0.7046 ± 0.0017 for the first, 0.726 ± 0.047 for the second.

VHKFGWSLSFSP [POR2 C-terminal 12 aa] and VKEIPEYSHLID [GCN5 C-terminal 12 aa] are within error of each other in protein stability index: 0.681 ± 0.038 for the first, 0.697 ± 0.0012 for the second.

VKIATSILGKKL [PGS1 C-terminal 12 aa] and VKQMRKKKDKGD [MSB3 C-terminal 12 aa] are within error of each other in protein stability index: 0.687 ± 0.025 for the first, 0.691 ± 0.042 for the second.

VKSSMGPAFRLY [RPL1A C-terminal 12 aa] and VKTLANEILNII [ECM11 C-terminal 12 aa] are within error of each other in protein stability index: 0.712 ± 0.046 for the first, 0.711 ± 0.0092 for the second.

Going from VLLTILLFIQAY [SPO19 C-terminal 12 aa] to VLMLETIAYLFS [NFG1 C-terminal 12 aa], the protein stability index rises from 0.19 ± 0.0039 to 0.5059 ± 0.0015.

Compared with “VNNFKMFSNSSV [YIL115W-A C-terminal 12 aa]”, VPDIPPPPALVA [NUP42 C-terminal 12 aa] is lower in protein stability index: 0.765 ± 0.045 for the first, 0.6989 ± 0.0048 for the second.

Going from VPEEQRIKRRKI [IRC4 C-terminal 12 aa] to VPKSLYGVTRTR [GAT3 C-terminal 12 aa], the protein stability index rises from 0.3 ± 0.035 to 0.686 ± 0.032.

Going from VPYAKILDQCIL [YGL230C C-terminal 12 aa] to VQNLIAAVMGEL [PNP1 C-terminal 12 aa], the protein stability index falls from 0.721 ± 0.021 to 0.664 ± 0.024.

VRADDLSTRFNI [RRP43 C-terminal 12 aa] and VSIYKPYTEESE [WTM1 C-terminal 12 aa] are within error of each other in protein stability index: 0.664 ± 0.017 for the first, 0.663 ± 0.027 for the second.

VSPYDYNHKRVS [DIB1 C-terminal 12 aa] and VTRAAESLGFTV [MIP6 C-terminal 12 aa] are within error of each other in protein stability index: 0.678 ± 0.035 for the first, 0.69562 ± 4.2e-05 for the second.

VVAQKPKLPYTK [YBR225W C-terminal 12 aa] and VVNKYLKENGYY [APE2 C-terminal 12 aa] are within error of each other in protein stability index: 0.725 ± 0.066 for the first, 0.6615 ± 0.0031 for the second.

VVVTGNLQILEH [UGP1 C-terminal 12 aa] and VYARDAAALRPV [SCS3 C-terminal 12 aa] are within error of each other in protein stability index: 0.684 ± 0.019 for the first, 0.686 ± 0.03 for the second.

First: VYEVVCDSVRNW [MRX21 C-terminal 12 aa]
Second: VYEYIVNVNEYA [CPS1 C-terminal 12 aa]
The protein stability index of the first is higher: 0.717 ± 0.0011 for the first, 0.682 ± 0.0094 for the second.

Going from WEHAMRSRRHKR [SWC3 C-terminal 12 aa] to WEKFIELEKNYK [MST1 C-terminal 12 aa], the protein stability index rises from 0.673 ± 0.027 to 0.799 ± 0.04.

Going from “WHKHKTSSDKNI [YDR261C-D C-terminal 12 aa]” to WKLAKLQIDEAL [SNX41 C-terminal 12 aa], the protein stability index falls from 0.749 ± 0.012 to 0.6896 ± 0.0063.

WLSKSGSSAALP [TOS1 C-terminal 12 aa] and “WQLVDNYESGYE [YGL194C-A C-terminal 12 aa]” are within error of each other in protein stability index: 0.685 ± 0.022 for the first, 0.648 ± 0.031 for the second.

First: WQTLVMILQESG [NPL4 C-terminal 12 aa]
Second: WTLLSRFLDREW [ATG36 C-terminal 12 aa]
The protein stability index of the first is lower: 0.444 ± 0.021 for the first, 0.6939 ± 0.0011 for the second.

Going from WVDAFGIIYGAL [YIL108W C-terminal 12 aa] to YALKRNAFKLLK [CRD1 C-terminal 12 aa], the protein stability index falls from 0.7232 ± 0.0018 to 0.691 ± 0.02.

First: YDLEAGENKFNF [URA7 C-terminal 12 aa]
Second: YEKVVELWNKVV [MNT4 C-terminal 12 aa]
The protein stability index of the first is higher: 0.703 ± 0.0099 for the first, 0.199 ± 0.0098 for the second.

YEPTDWECTDAP [YJR096W C-terminal 12 aa] and YITTPSSSGHAL [YIL141W C-terminal 12 aa] are within error of each other in protein stability index: 0.708 ± 0.06 for the first, 0.674 ± 0.027 for the second.

YKIKKQPRKKQQ [HST1 C-terminal 12 aa] and YKLGPGEDTATK [DPL1 C-terminal 12 aa] are within error of each other in protein stability index: 0.708 ± 0.081 for the first, 0.702 ± 0.032 for the second.

First: YLALKWIVVEQK [ADP1 C-terminal 12 aa]
Second: YLEHQQIHGRVV [YHR145C C-terminal 12 aa]
The protein stability index of the first is lower: 0.573 ± 0.018 for the first, 0.691 ± 0.013 for the second.

Compared with YLKNYFKTKHII [ERV25 C-terminal 12 aa], “YLTFYKSPKTFY [YDR183C-A C-terminal 12 aa]” is higher in protein stability index: 0.185 ± 0.0056 for the first, 0.637 ± 0.055 for the second.

“YNSDSGSYYTLM [YOR192C-C C-terminal 12 aa]” and YPGEAKRPQERF [COX10 C-terminal 12 aa] are within error of each other in protein stability index: 0.731 ± 0.097 for the first, 0.7 ± 0.047 for the second.

YSDTIWNVEPVT [GPH1 C-terminal 12 aa] and YSKHLKRLLPYH [MRP35 C-terminal 12 aa] are within error of each other in protein stability index: 0.73 ± 0.018 for the first, 0.712 ± 0.071 for the second.

With YTNLIASKVKKQ [YKL177W C-terminal 12 aa] the protein stability index was 0.6504 ± 0.0044.

The sequences below were run on Saccharomyces cerevisiae (assay: protein stability index of tFT-peptide fusion in wild type (PSI (0-1 scale)); higher = more stable (slower turnover)). Details: genetic background: wild type.
Procedure: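 MPS profiling in S. cerevisiae of two library types built from selected 12-aa C-degron peptides (IN1, IN2, LN1, LN3, VN2, R1-R5, W1-W3, Atg1 and Rpa12 C-termini): saturation mutagenesis libraries and C-terminal +1 capping libraries (13 aa). Each peptide is fused to the C-terminus of a sfGFP-mCherry timer, after a GGGS linker. Cells are FACS-sorted into 8 mCherry/sfGFP bins and sequenced. PSI runs from 0 (unstable) to 1 (stable), measured once in wild type and in the das1Δ or doa10Δ background.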

Compared with AEWRVGLWRGAS, AHWRVGLWRGAS is lower in protein stability index: 0.528 for the first, 0.43 for the second.

Going from ARIRVGLWRGAS to ARRRVGLWRGAS, the protein stability index falls from 0.599 to 0.538.

Compared with ARWLVGLWRGAS, ARWRDGLWRGAS is higher in protein stability index: 0.419 for the first, 0.651 for the second.

Going from ARWRVELWRGAS to ARWRVGAWRGAS, the protein stability index rises from 0.203 to 0.427.

Compared with ARWRVGLVRGAS, ARWRVGLWHGAS is higher in protein stability index: 0.614 for the first, 0.624 for the second.

Compared with ARWRVGLWKGAS, ARWRVGLWQGAS is lower in protein stability index: 0.64 for the first, 0.602 for the second.

Compared with ARWRVGLWRGASG, ARWRVGLWRGASP is higher in protein stability index: 0.662 for the first, 0.663 for the second.

First: ARWRVGLWRKAS
Second: ARWRVGLWRWAS
The protein stability index of the first is higher: 0.1 for the first, 0.0999 for the second.

First: ARWRVGSWRGAS
Second: ARWRVQLWRGAS
The protein stability index of the first is higher: 0.641 for the first, 0.287 for the second.

— the supplement of paper PMC10724198
